Tests used:
[1] = molecular target: CD16A on human primary NK cells (human) (UniProt P08637); experiment: flow cytometry (MFI, PE-anti-human Fc) on human primary NK cells, donor SLB190084
[2] = molecular target: CD16A on human primary NK cells (human) (UniProt P08637); experiment: flow cytometry (MFI, PE-anti-human Fc) on human primary NK cells, donor SLB190071
[3] = molecular target: CD16A-158V-G129D (human); experiment: BLI (ForteBio), method of Example 3, mutant antigen
[4] = molecular target: human CD16A (type 158V) on GS-CHO cells (human) (UniProt P08637); experiment: flow cytometry (MFI, PE-anti-human Fc) on GS-CHO cells expressing human CD16A (type 158V)
[5] = molecular target: cynomolgus monkey CD16A protein (cynomolgus monkey) (UniProt Q8SPW2); experiment: BLI (ForteBio), antibody on Protein A sensor, antigen 100 nM, 1:1 model
[6] = molecular target: human CD16A-158V protein (human) (UniProt P08637); experiment: as above
[7] = molecular target: human CD16A-158F protein (human) (UniProt P08637); experiment: as above
Chain of human CD16A-158F protein (human) (P08637 17-208 limits assumed): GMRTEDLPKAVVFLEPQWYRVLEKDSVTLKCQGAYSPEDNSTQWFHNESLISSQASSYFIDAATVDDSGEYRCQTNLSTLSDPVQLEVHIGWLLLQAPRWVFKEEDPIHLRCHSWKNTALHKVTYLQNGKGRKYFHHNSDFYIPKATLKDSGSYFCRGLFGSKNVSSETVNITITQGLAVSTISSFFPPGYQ

Chain of CD16A on human primary NK cells (human) (P08637 17-254): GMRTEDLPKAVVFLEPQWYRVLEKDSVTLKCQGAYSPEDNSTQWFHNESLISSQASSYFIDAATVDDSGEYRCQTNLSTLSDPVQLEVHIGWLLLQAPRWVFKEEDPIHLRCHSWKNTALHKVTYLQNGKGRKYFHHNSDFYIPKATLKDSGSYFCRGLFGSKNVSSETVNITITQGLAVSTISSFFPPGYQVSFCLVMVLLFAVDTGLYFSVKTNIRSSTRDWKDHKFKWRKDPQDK
Chain of human CD16A (type 158V) on GS-CHO cells (human) (P08637 17-254 F176V): as the sequence (P08637 17-254) above, with F160V counted along it
Chain of CD16A-158V-G129D (human) (chain, as listed by the source G129D G129D limits assumed): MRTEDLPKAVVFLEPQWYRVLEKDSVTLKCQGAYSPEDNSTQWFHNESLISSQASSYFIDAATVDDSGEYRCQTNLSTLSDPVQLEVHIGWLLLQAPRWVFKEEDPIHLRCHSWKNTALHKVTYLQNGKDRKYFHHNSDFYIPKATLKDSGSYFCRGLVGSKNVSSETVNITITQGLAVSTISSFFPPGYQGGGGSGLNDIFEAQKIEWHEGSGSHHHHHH
Chain of cynomolgus monkey CD16A protein (cynomolgus monkey) (Q8SPW2 17-208 limits assumed): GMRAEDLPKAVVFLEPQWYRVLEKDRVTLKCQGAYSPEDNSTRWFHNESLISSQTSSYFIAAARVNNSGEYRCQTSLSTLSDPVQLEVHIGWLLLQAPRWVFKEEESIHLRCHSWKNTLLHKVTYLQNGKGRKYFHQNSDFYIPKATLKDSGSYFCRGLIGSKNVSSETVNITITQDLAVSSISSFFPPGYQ
Chain of human CD16A-158V protein (human) (P08637 17-208 F176V limits assumed): as the sequence (P08637 17-208 limits assumed) above, with F160V counted along it

EC50 [1]: 15.6 nM
EC50 [2]: 2.64 nM
Kd [3]: 4.63 nM
EC50 [4]: 11.8 nM
Kd [5]: 7.94 nM
Kd [6]: 7.75 nM
Kd [7]: 4.75 nM
B1: 4LS21 antibody (CD16A humanized antibody 4LS21 from Affimed Therapeutics AG, in the form of ScFv-Fc) (Fc fusion, not shown: a dimerising Fc or GST; small tags and cut ends)
VH: QVQLVQSGAEVKKPGESLKVSCKASGYTFTSYYMHWVRQAPGQGLEWMGAIEPMYGSTSYAQKFQGRVTMTRDTSTSTVYMELSSLRSEDTAVYYCARGSAYYYDFADYWGQGTLVTVSS
VL: SYVLTQPSSVSVAPGQTATISCGGHNIGSKNVHWYQQRPGQSPVLVIYQDNKRPSGIPERFSGSNSGNTATLTISGTQAMDEADYYCQVWDNYSVLFGGGTKLTVL

— patent US20240101677A1
